The subject of this data set is C=C(OP(=O)(O)O)C(=O)O. Briefly: purified protein. The following applies: Hepes pH 8.0, 25 C, apparent.

Chain of PK (pyruvate kinase) (Oryctolagus cuniculus) (chain, as listed by the source): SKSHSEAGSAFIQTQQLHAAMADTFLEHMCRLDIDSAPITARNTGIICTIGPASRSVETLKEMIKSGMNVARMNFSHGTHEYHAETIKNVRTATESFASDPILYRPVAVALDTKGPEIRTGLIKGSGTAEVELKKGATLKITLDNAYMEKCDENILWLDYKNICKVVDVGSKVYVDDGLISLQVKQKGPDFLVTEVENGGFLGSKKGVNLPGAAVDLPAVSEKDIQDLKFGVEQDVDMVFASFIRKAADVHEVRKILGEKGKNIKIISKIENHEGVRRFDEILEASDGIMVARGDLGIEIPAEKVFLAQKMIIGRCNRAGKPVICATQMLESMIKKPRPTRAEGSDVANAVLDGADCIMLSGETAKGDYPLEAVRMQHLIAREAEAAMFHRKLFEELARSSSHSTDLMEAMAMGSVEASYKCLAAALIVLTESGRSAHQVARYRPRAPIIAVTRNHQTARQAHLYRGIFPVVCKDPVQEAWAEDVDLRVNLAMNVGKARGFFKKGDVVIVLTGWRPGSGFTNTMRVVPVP

Regarding “PK (pyruvate kinase) (Oryctolagus cuniculus)”, the Km came to 40 µM and the kcat was determined as 160 s⁻¹.

For the origin of these results see paper PMC4143292, “An Enzymatic Platform for the Synthesis of Isoprenoid Precursors” (PLoS ONE, 2014).
